The text below walks through data of US20140044674A1 (Hoffmann-La Roche, published 2014).

One experiment has as its target T1, His-tagged human FAP ECD (human, UniProt Q12884 27-760).
T1 construct: also called hu FAP
As to the kind of experiment: SPR ProteOn XPR36, 25 C; His-tagged FAP captured by anti-penta-His IgG, construct as analyte. The protocol: (§1) To determine the affinities to FAP, the target protein was captured via its H6-tag by a covalently immobilized anti-H6 antibody (FIG. 9A). Briefly, anti-penta His IgG (Qiagen #34660, mouse monoclonal antibody) was immobilized at high levels (up to ˜5.000 RU) at 30 μ/min onto separate vertical channels of a GLM chip by simultaneously activating all channels for 5 min with a freshly prepared mixture of 1-ethyl-3-(3-dimethylaminopropyl)-carboiimide (EDC) and N-hydroxysuccinimide (sNHS), subsequently injecting 15 μg/ml anti-penta His IgG in 10 mM sodium acetate buffer pH 4.5 for 180 sec. Channels were blocked using a 5-min injection of ethanolamine. H6-tagged FAP from different species (see SEQ ID NOs 81, 83 and 85) was captured from a 5 μg/ml dilution in running buffer along the vertical channels for 60 s at 30 μl/min to achieve ligand densities between ˜250 and 600 RU. In a one-shot kinetic assay set-up (OSK), antibody-IL-10 fusion constructs were injected as analytes along the horizontal channels in a five-fold dilution series ranging from 50 to 0.08 nM at 100 μl/min. Association phase was recorded for 180 s, dissociation phase for 600 s. […] Running buffer (PBST) was injected along the sixth channel to provide an “in-line” blank for referencing. Association rates (kₒₙ) and dissociation rates (koff) were calculated using a simple 1:1 Langmuir binding model (ProteOn Manager software version 2.1) by simultaneously fitting the association and dissociation sensorgrams. The equilibrium dissociation constant (KD) was calculated as the ratio koff/kₒₙ.

The target of a further experiment is T2, His-tagged mouse FAP ECD (mouse, UniProt P97321 27-761).
T2 construct: also called mu FAP; murine FAP
The description is as above. The protocol:
as §1

The target of experiment [1] is T3, His-tagged cynomolgus FAP ECD (cynomolgus, UniProt Q12884 27-760 (human entry)).
T3 construct: also called cyno FAP
Described as above. Here is the method: as §1

Experiment [2] has as its target T4, human IL-10R1 ECD fused to a human Fc region, biotinylated (human, biotinylated (site not stated)).
T4 construct: Captured on a neutravidin chip; also called hu IL-10R1; IL-10 receptor 1
As to the kind of experiment: SPR ProteOn XPR36, 25 C; biotinylated hu IL-10R1-Fc on neutravidin chip, construct as analyte. Here is the method:
To measure the interaction between the antibody-IL-10 fusion constructs and the human IL-10R1, an NLC chip was used for immobilization of the biotinylated receptor (FIG. 9B). Between 400 and 1600 RU of human IL-10R1 (see SEQ ID NO: 87) were captured on the neutravidin-derivatized chip matrix along vertical channels at a concentration of 10 μg/ml and a flow rate of […] for varying contact times. Binding to biotinylated human IL10R1 was measured at six different analyte concentrations (50, 10, 2, 0.4, 0.08, 0 nM) by injections in horizontal orientation at 100 μl/min, recording the association rate for 180 s, the dissociation rate for 600 s. Running buffer (PBST) was injected along the sixth channel to provide an “in-line” blank for referencing. Association rates (kₒₙ) and dissociation rates (koff) were calculated using a simple 1:1 Langmuir binding model (ProteOn Manager software version 2.1) by simultaneously fitting the association and dissociation sensorgrams. The equilibrium dissociation constant (KD) was calculated as the ratio koff/kₒₙ. As human IL-10R1 could not be regenerated without a loss of activity, the two subsequent steps of ligand capture and analyte injection were performed channel per channel using a freshly immobilized sensorchip surface for every interaction.

B1: 4B9 Fab-IL-10 (other)
heavy: EVQLLESGGGLVQPGGSLRLSCAASGFTFSSYAMSWVRQAPGKGLEWVSAIIGSGASTYYADSVKGRFTISRDNSKNTLYLQMNSLRAEDTAVYYCAKGWFGGFNYWGQGTLVTVSSASTKGPSVFPLAPSSKSTSGGTAALGCLVKDYFPEPVTVSWNSGALTSGVHTFPAVLQSSGLYSLSSVVTVPSSSLGTQTYICNVNHKPSNTKVDKKVEPKSCDGGGGSGGGGSGGGGSSPGQGTQSENSCTHFPGNLPNMLRDLRDAFSRVKTFFQMKDQLDNLLLKESLLEDFKGYLGCQALSEMIQFYLEEVMPQAENQDPDIKAHVNSLGENLKTLRLRLRRCHRFLPCENKSKAVEQVKNAFNKLQEKGIYKAMSEFDIFINYIEAYMTMKIRN
light: EIVLTQSPGTLSLSPGERATLSCRASQSVTSSYLAWYQQKPGQAPRLLINVGSRRATGIPDRFSGSGSGTDFTLTISRLEPEDFAVYYCQQGIMLPPTFGQGTKVEIKRTVAAPSVFIFPPSDEQLKSGTASVVCLLNNFYPREAKVQWKVDNALQSGNSQESVTEQDSKDSTYSLSSTLTLSKADYEKHKVYACEVTHQGLSSPVTKSFNRGEC
notes: also called Fab-IL-10 (clone 4B9)
For the molecule B1, the Kd (in general, the free concentration of one partner at which half of the binding sites on the other are occupied at equilibrium, for simple one-to-one binding) with His-tagged human FAP ECD amounted to 0.00105 nM; in the experiment with His-tagged mouse FAP ECD, 0.0234 nM; in experiment [1], 0.0175 nM; in experiment [2] it was 0.0212 nM. Besides, the koff (commonly a measure of how fast the partners let go of each other) was determined as 5.72e-06 s⁻¹ in the experiment with His-tagged human FAP ECD, 6.27e-05 s⁻¹ in the experiment with His-tagged mouse FAP ECD, 7.27e-05 s⁻¹ in experiment [1] and 4.57e-05 s⁻¹ in experiment [2]. Moreover, the kon – broadly, the rate constant with which the complex forms – with His-tagged human FAP ECD came to 5.47e+06 M⁻¹ s⁻¹; with His-tagged mouse FAP ECD it was 2.68e+06 M⁻¹ s⁻¹; in experiment [1], 4.16e+06 M⁻¹ s⁻¹; in experiment [2] it was 2.15e+06 M⁻¹ s⁻¹.

B2: 4B9 Fab-scIL-10-Fab (other)
heavy: EVQLLESGGGLVQPGGSLRLSCAASGFTFSSYAMSWVRQAPGKGLEWVSAIIGSGASTYYADSVKGRFTISRDNSKNTLYLQMNSLRAEDTAVYYCAKGWFGGFNYWGQGTLVTVSSASTKGPSVFPLAPSSKSTSGGTAALGCLVKDYFPEPVTVSWNSGALTSGVHTFPAVLQSSGLYSLSSVVTVPSSSLGTQTYICNVNHKPSNTKVDKKVEPKSCDGGGGSGGGGSGGGGSSPGQGTQSENSCTHFPGNLPNMLRDLRDAFSRVKTFFQMKDQLDNLLLKESLLEDFKGYLGCQALSEMIQFYLEEVMPQAENQDPDIKAHVNSLGENLKTLRLRLRRCHRFLPCENKSKAVEQVKNAFNKLQEKGIYKAMSEFDIFINYIEAYMTMKIRNGGGGSGGGGSGGGGSGGGGSSPGQGTQSENSCTHFPGNLPNMLRDLRDAFSRVKTFFQMKDQLDNLLLKESLLEDFKGYLGCQALSEMIQFYLEEVMPQAENQDPDIKAHVNSLGENLKTLRLRLRRCHRFLPCENKSKAVEQVKNAFNKLQEKGIYKAMSEFDIFINYIEAYMTMKIRNGGGGSGGGGSGGGGSEVQLLESGGGLVQPGGSLRLSCAASGFTFSSYAMSWVRQAPGKGLEWVSAIIGSGASTYYADSVKGRFTISRDNSKNTLYLQMNSLRAEDTAVYYCAKGWFGGFNYWGQGTLVTVSSASTKGPSVFPLAPSSKSTSGGTAALGCLVKDYFPEPVTVSWNSGALTSGVHTFPAVLQSSGLYSLSSVVTVPSSSLGTQTYICNVNHKPSNTKVDKKVEPKSCD
light: B1 light
notes: also called Fab-scIL-10-Fab (clone 4B9)
On to B2, for which the Kd in the experiment with His-tagged human FAP ECD is 0.00656 nM; with His-tagged mouse FAP ECD, 0.0303 nM; in experiment [1], 0.00679 nM; in experiment [2], 0.0553 nM. The koff is 3.11e-05 s⁻¹ with His-tagged human FAP ECD, 7.4e-05 s⁻¹ with His-tagged mouse FAP ECD, 3.35e-05 s⁻¹ in experiment [1] and 9.58e-05 s⁻¹ in experiment [2]. The kon with His-tagged human FAP ECD was 4.74e+06 M⁻¹ s⁻¹; in the experiment with His-tagged mouse FAP ECD it was 2.45e+06 M⁻¹ s⁻¹; in experiment [1], 4.93e+06 M⁻¹ s⁻¹; in experiment [2] it was 1.73e+06 M⁻¹ s⁻¹.
